The labels stand for the following.
B1: Interleukin-1 receptor-associated kinase 4 (Homo sapiens), Q9NWZ3 (parent)
chain: MNKPITPSTYVRCLNVGLIRKLSDFIDPQEGWKKLAVAIKKPSGDDRYNQFHIRRFEALLQTGKSPTSELLFDWGTTNCTVGDLVDLLIQNEFFAPASLLLPDAVPKTANTLPSKEAITVQQKQMPFCDKDRTLMTPVQNLEQSYMPPDSSSPENKSLEVSDTRFHSFSFYELKNVTNNFDERPISVGGNKMGEGGFGVVYKGYVNNTTVAVKKLAAMVDITTEELKQQFDQEIKVMAKCQHENLVELLGFSSDGDDLCLVYVYMPNGSLLDRLSCLDGTPPLSWHMRCKIAQGAANGINFLHENHHIHRDIKSANILLDEAFTAKISDFGLARASEKFAQTVMTSRIVGTTAYMAPEALRGEITPKSDIYSFGVVLLEIITGLPAVDEHREPQLLLDIKEEIEDEEKTIEDYIDKKMNDADSTSVEAMYSVASQCLHEKKNKRPDIKKVQQLLQEMTAS
B2: Protein LDOC1 (Homo sapiens), O95751 (parent)
chain: MVDELVLLLHALLMRHRALSIENSQLMEQLRLLVCERASLLRQVRPPSCPVPFPETFNGESSRLPEFIVQTASYMLVNENRFCNDAMKVAFLISLLTGEAEEWVVPYIEMDSPILGDYRAFLDEMKQCFGWDDDEDDDDEEEEDDY
partner: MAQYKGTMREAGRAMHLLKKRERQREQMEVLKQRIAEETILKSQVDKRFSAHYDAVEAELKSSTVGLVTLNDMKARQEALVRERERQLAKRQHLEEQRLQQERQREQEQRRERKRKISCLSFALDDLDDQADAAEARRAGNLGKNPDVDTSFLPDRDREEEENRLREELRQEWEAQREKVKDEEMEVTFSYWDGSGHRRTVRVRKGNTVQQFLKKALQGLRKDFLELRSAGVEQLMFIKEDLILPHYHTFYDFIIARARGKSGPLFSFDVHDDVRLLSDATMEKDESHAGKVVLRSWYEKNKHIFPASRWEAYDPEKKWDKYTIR
B3: U3 small nucleolar RNA-associated protein 14 homolog C (Homo sapiens), Q5TAP6 (parent)
chain: MNVNQVAENLALSHQEELVDLPKNYPLSENEDEGDSDGERKHQKLLEAIISLDGKNRRKLAERSEASLKVSEFSVSSEGSGEKLGLADLLEPVKTSSSLATVKKQLNRVKSKKVVELPLNKEKIEQIHREVAFSKTSQVLSKWDPIILKNQQAEQLVFPLGKEQPAIAPIEHALSGWKARTPLEQEIFNLLHKNKQPVTDPLLTPMEKASLQAMSLEEAKMHRAELQRARALQSYYEAKARKEKKIKSKKYHKVVKKGKAKKALKEFEQLQKVNPTVALEEMEKIENARMMERMSLKHQNSGKWAKSKAIMAKYDLEARQAMQEQLAKNKELTQKLQVASESEEEEGGTEVEELLVPHVANEVQMNVDGPNPWMFRSCTSDTKEAATQEDPEQVPELAAHEVSASEAEERPVAEEEILLREFEERQSLRKRSELNQDAEPASSQETKDSSSQEVLSELRALSQKLKEKHQSRKQKASSEGTVPQVQREEPAPEEAEPLLLQRSERVQTLEELEELGKEDCFQNKELPRPVLEGQQSERTPNNRPDAPKEKKEKEQLINLQNFLTTQSPSVRSLAVPTIIEELEDEEERDQRQMIKEAFAGDDVIRDFLKEKREAVEASKPKDVDLTLPGWGEWGGVGLKPSAKKRRQFLIKAPEGPPRKDKNLPNVIISEKRNIHAAAHQVQVLPYPFTHHRQFERTIQTPIGSTWNTQRAFQKLTTPKVVTKPGHIIKPIKAEDVGYQSSSRSDLPVIQRNPKRITTRHNKEEKL
B4: Tuftelin-interacting protein 11 (Homo sapiens), Q9UBB9 (parent)
chain: MSLSHLYRDGEGRIDDDDDERENFEITDWDLQNEFNPNRQRHWQTKEEATYGVWAERDSDDERPSFGGKRARDYSAPVNFISAGLKKGAAEEAELEDSDDEEKPVKQDDFPKDFGPRKLKTGGNFKPSQKGFAGGTKSFMDFGSWERHTKGIGQKLLQKMGYVPGRGLGKNAQGIINPIEAKQRKGKGAVGAYGSERTTQSMQDFPVVDSEEEAEEEFQKELSQWRKDPSGSKKKPKYSYKTVEELKAKGRISKKLTAPQKELSQVKVIDMTGREQKVYYSYSQISHKHNVPDDGLPLQSQQLPQSGKEAKAPGFALPELEHNLQLLIDLTEQEIIQNDRQLQYERDMVVNLFHELEKMTEVLDHEERVISNLSKVLEMVEECERRMQPDCSNPLTLDECARIFETLQDKYYEEYRMSDRVDLAVAIVYPLMKEYFKEWDPLKDCTYGTEIISKWKSLLENDQLLSHGGQDLSADAFHRLIWEVWMPFVRNIVTQWQPRNCDPMVDFLDSWVHIIPVWILDNILDQLIFPKLQKEVENWNPLTDTVPIHSWIHPWLPLMQARLEPLYSPIRSKLSSALQKWHPSDSSAKLILQPWKDVFTPGSWEAFMVKNIVPKLGMCLGELVINPHQQHMDAFYWVIDWEGMISVSSLVGLLEKHFFPKWLQVLCSWLSNSPNYEEITKWYLGWKSMFSDQVLAHPSVKDKFNEALDIMNRAVSSNVGAYMQPGARENIAYLTHTERRKDFQYEAMQERREAENMAQRGIGVAASSVPMNFKDLIETKAEEHNIVFMPVIGKRHEGKQLYTFGRIVIYIDRGVVFVQGEKTWVPTSLQSLIDMAK
partner: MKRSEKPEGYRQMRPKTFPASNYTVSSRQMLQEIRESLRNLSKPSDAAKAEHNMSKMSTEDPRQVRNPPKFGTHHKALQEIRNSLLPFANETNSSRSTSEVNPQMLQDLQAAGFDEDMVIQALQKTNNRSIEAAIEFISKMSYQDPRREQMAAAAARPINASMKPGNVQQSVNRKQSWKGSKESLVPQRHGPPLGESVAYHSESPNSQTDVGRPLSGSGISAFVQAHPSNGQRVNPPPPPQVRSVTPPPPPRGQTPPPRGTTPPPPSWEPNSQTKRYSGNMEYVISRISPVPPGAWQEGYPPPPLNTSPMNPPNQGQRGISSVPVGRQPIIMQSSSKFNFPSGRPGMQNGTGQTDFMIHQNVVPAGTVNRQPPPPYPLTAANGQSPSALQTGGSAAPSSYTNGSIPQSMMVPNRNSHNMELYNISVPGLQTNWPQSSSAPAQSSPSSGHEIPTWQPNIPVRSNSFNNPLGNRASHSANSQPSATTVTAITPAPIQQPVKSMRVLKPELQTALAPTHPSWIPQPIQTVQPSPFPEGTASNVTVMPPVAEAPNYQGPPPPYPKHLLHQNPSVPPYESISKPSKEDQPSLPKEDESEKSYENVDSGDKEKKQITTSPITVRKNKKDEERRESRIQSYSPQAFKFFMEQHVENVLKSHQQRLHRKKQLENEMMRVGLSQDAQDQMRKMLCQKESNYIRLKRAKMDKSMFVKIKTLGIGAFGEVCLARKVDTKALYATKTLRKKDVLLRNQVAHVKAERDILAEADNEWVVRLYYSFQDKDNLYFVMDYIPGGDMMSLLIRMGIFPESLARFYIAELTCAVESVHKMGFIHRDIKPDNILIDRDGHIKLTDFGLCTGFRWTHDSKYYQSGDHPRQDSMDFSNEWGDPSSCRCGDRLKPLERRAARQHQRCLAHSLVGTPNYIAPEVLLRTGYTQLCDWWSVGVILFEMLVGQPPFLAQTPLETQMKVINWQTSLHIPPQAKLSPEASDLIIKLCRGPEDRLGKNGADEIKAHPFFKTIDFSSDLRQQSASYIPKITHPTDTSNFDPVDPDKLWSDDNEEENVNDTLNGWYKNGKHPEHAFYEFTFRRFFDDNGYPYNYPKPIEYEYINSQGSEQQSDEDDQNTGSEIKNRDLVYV
B5: Microtubule-associated protein RP/EB family member 1 (Homo sapiens), Q15691 (parent)
chain: MAVNVYSTSVTSDNLSRHDMLAWINESLQLNLTKIEQLCSGAAYCQFMDMLFPGSIALKKVKFQAKLEHEYIQNFKILQAGFKRMGVDKIIPVDKLVKGKFQDNFEFVQWFKKFFDANYDGKDYDPVAARQGQETAVAPSLVAPALNKPKKPLTSSSAAPQRPISTQRTAAAPKAGPGVVRKNPGVGNGDDEAAELMQQVNVLKLTVEDLEKERDFYFGKLRNIELICQENEGENDPVLQRIVDILYATDEGFVIPDEGGPQEEQEEY

Variants of B1 are the subject of one assay. The conditions noted are these: with myd88_human MYD88, Q99836.
Sequence of myd88_human MYD88, Q99836 (Q99836 whole entry): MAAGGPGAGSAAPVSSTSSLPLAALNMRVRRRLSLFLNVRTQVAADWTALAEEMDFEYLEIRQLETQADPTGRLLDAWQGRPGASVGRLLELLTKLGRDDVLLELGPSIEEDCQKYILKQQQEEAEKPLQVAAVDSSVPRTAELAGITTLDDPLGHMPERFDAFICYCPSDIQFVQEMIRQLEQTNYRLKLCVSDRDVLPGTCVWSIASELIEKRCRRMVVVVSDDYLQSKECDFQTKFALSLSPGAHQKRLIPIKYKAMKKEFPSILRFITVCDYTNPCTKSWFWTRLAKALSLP
With R20W, the “effect of a mutation on the interaction” value is “with no effect”. Turning to A428T, the “effect of a mutation on the interaction” value is listed as “with no effect”.

Variants of B2 are the subject of another assay. The conditions noted are these: with fa50b_human FAM50B.
With L12H, the “effect of a mutation on the interaction” value is listed as “disrupting interaction strength”.

In a further assay the parent is B3. The conditions noted are these: with myome_human PDE4DIP.
For K247E, the “effect of a mutation on the interaction” value is reported as “with no effect”.

Regarding V109D, the “effect of a mutation on the interaction” value is recorded as “with no effect”. Regarding A652T, the “effect of a mutation on the interaction” value was “with no effect”.

I170V: the “effect of a mutation on the interaction” value was “with no effect”. Consider R672H, for which the “effect of a mutation on the interaction” value is “with no effect”.

The variants in a further assay derive from B4. The conditions noted are these: with lats1_human LATS1, O95835.
On to S688L, for which the “effect of a mutation on the interaction” value is “with no effect”. On the same count and under the same terms, as for R8Q, the entry is “with no effect”.

The variants in another assay derive from B5. The conditions noted are these: with mare3_human MAPRE3, Q9UPY8.
Sequence of mare3_human MAPRE3, Q9UPY8 (Q9UPY8 whole entry): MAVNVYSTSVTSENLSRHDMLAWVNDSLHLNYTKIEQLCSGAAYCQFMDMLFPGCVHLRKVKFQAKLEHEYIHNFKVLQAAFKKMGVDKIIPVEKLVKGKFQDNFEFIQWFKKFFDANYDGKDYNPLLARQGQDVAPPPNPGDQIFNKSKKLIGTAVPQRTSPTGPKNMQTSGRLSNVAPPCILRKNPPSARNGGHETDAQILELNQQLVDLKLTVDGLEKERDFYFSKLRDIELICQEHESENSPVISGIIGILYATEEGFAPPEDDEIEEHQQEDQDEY
With N201S, the “effect of a mutation on the interaction” value is recorded as “with no effect”.

The values are drawn from IntAct's records for PubMed 31515488.
